B1: 012517-E12 (protein)
chain: MALPVTALLLPLALLLHAARPLEGKPIPNPLLGLDSTGSGEDLKNVFPPEVAVFEPSKAEIAHTQKATLVCLATGFYPDHVELSWWVNGKEVHSGVCTDPQPLKEQPALNDSRYCLSSRLRVSATFWQNPRNHFRCQVQFYGLSENDEWTQDRAKPVTQIVSAEAWGRADCGITSASYHQGVLSATILYEILLGKATLYAVLVSALVLMAMVKRKDSRGRAKRSGSGATNFSLLKQAGDVEENPGPTSMALPVTALLLPLALLLHAARPDIQMTQTTSSLSASLGDRVTISCRASQDISNYLNWYQQKPDGTVKLLIYYTSILHSGVPSRFSGSGSGTDYSLTISNLEQEDFATYFCQQGNTLPWTFGGGTKLEIKAGGGGSGGGGSGGGGSEVQLVESGGGLVKPGGSLKLSCAASGFAFSIYDMSWVRQTPEKRLEWVAYISSGGGTYYPDTVKGRFTISRDNAKNTLYLQMSSLKSEDTAMYYCARHSGYGTHWGVLFAYWGQGTLVTVSATREQKLISEEDGSGIQNPDPAVYQLRDSKSSDKSVCLFTDFDSQTNVSQSKDSDVYITDKCVLDMRSMDFKSNSAVAWSNKSDFACANAFNNSIIPEDTFFPSSDVPCDVKLVEKSFETDTNLNFQNLSVIGFRILLLKVAGFNLLMTLRLWSSRAKRSGSGVKQTLNFDLLKLAGDVESNPGPSRGHMTEYKPTVRLATRDDVPRAVRTLAAAFADYPATRHTVDPDRHIERVTELQELFLTRVGLDIGKVWVADDGAAVAVWTTPESVEAGAVFAEIGPRMAELSGSRLAAQQQMEGLLAPHRPKEPAWFLATVGVSPDHQGKGLGSAVVLPGVEAAERAGVPAFLETSAPRNLPFYERLGFTVTADVEVPEGPRTWCMTRKPGA
B2: 081516-I03 (protein)
chain: MALPVTALLLPLALLLHAARPLEGKPIPNPLLGLDSTGSGEDLKNVFPPEVAVFEPSKAEIAHTQKATLVCLATGFYPDHVELSWWVNGKEVHSGVCTDPQPLKEQPALNDSRYCLSSRLRVSATFWQNPRNHFRCQVQFYGLSENDEWTQDRAKPVTQIVSAEAWGRADCGITSASYHQGVLSATILYEILLGKATLYAVLVSALVLMAMVKRKDSRGRAKRSGSGATNFSLLKQAGDVEENPGPTSTMALPVTALLLPLALLLHAARPDIVMTQSPSSLSASVGDRVTITCKASQSVTNDVAWYQQKPGKAPKLLIYYASNRYTGVPSRFSGSGSGTDFTLTISSLQPEDFATYYCQQDYRSPWTFGGGTKVEIKRGGGGSGGGGSGGGGSQVQLEESGGGVVRPGRSLRLSCAASGFTFSDYGVNWIRQAPGKGLEWVTIIWGDGRTDYNSALKSRFTVSRNNSNNTLSLQMNSLTTEDTAVYYCVRAPGNRAMEYWGQGVLVTVSSTREQKLISEEDLGSGTPFPSLAPPIMLLVDGKQQMVVVCLVLDVAPPGLDSPIWFSAGNGSALDAFTYGPSPATDGTWTNLAHLSLPSEELASWEPLVCHTGPGAEGHSRSTQPMHLSGEASTARTCPQEPLRGTPGGALWLGVLRLLLFKLLLFDLLLTCSCLCDPAGPLPSPATTTRLRALGSHRLHPATETGGREATSSPRPQPRDRRWGDTPPGRKPGSPVRAKRSGSGVKQTLNFDLLKLAGDVESNPGPSRSRGHMTEYKPTVRLATRDDVPRAVRTLAAAFADYPATRHTVDPDRHIERVTELQELFLTRVGLDIGKVWVADDGAAVAVWTTPESVEAGAVFAEIGPRMAELSGSRLAAQQQMEGLLAPHRPKEPAWFLATVGVSPDHQGKGLGSAVVLPGVEAAERAGVPAFLETSAPRNLPFYERLGFTVTADVEVPEGPRTWCMTRKPGA
modifications: Polynucleotide encoding a Synthetic Immune Receptor (SIR)
B3: 040417-R02 (protein)
chain: MALPVTALLLPLALLLHAARPEVQLVESGGGLVQPGRSLRLSCAASGFTFDDYAMHWVRQAPGKGLEWVSGISWNSGSIGYADSVKGRFTISRDNAKNSLYLQMNSLRAEDTALYYCAKDKGGGYYDFWSGSDYWGQGTLVTVSSLEDLKNVFPPEVAVFEPSKAEIAHTQKATLVCLATGFYPDHVELSWWVNGKEVHSGVCTDPQPLKEQPALNDSRYCLSSRLRVSATFWQNPRNHFRCQVQFYGLSENDEWTQDRAKPVTQIVSAEAWGRADCGITSASYHQGVLSATILYEILLGKATLYAVLVSALVLMAMVKRKDSRGRAKRSGSGATNFSLLKQAGDVEENPGPTSMDWIWRILFLVGAATGAHSFESSELTQDPAVSVALGQTVRITCQGDSLRSYYASWYQQKPGQAPVLVIYGKNNRPSGIPDRFSGSSSGNTASLTITGAQAEDEADYYCNSRDSSGWVFGGGTKLTVLTRIQNPDPAVYQLRDSKSSDKSVCLFTDFDSQTNVSQSKDSDVYITDKCVLDMRSMDFKSNSAVAWSNKSDFACANAFNNSIIPEDTFFPSSDVPCDVKLVEKSFETDTNLNFQNLSVIGFRILLLKVAGFNLLMTLRLWSSRAKRSGSGVKQTLNFDLLKLAGDVESNPGPSRGHMTEYKPTVRLATRDDVPRAVRTLAAAFADYPATRHTVDPDRHIERVTELQELFLTRVGLDIGKVWVADDGAAVAVWTTPESVEAGAVFAEIGPRMAELSGSRLAAQQQMEGLLAPHRPKEPAWFLATVGVSPDHQGKGLGSAVVLPGVEAAERAGVPAFLETSAPRNLPFYERLGFTVTADVEVPEGPRTWCMTRKPGA
B4: 040417-W08 (protein)
chain: MALPVTALLLPLALLLHAARPQVQLVQSGAEVKKPGASVKVSCKASGYTFTSYDINWVRQATGQGLEWMGWMNPNSGNTGYAQKFQGRVTMTRNTSISTAYMELSSLRSEDTAVYYCARGDSTKVEIKLEIQNPDPAVYQLRDSKSSDKSVCLFTDFDSQTNVSQSKDSDVYITDKCVLDMRSMDFKSNSAVAWSNKSDFACANAFNNSIIPEDTFFPSSDVPCDVKLVEKSFETDTNLNFQNLSVIGFRILLLKVAGFNLLMTLRLWSSRAKRSGSGVKQTLNFDLLKLAGDVESNPGPTSMDWIWRILFLVGAATGAHSFEQSVLTQPRSVSGSPGQSVTISCTGTSSDVGGYNYVSWYQQHPGEAPKLIIYDADKRPSGISNRFSSGKSGNTASLTISGLQVEDEADYYCCSYAGGSTWVFGGGTKVTVLTREDLKNVFPPEVAVFEPSKAEIAHTQKATLVCLATGFYPDHVELSWWVNGKEVHSGVCTDPQPLKEQPALNDSRYCLSSRLRVSATFWQNPRNHFRCQVQFYGLSENDEWTQDRAKPVTQIVSAEAWGRADCGITSASYHQGVLSATILYEILLGKATLYAVLVSALVLMAMVKRKDSRGRAKRSGSGATNFSLLKQAGDVEENPGPSRGHMTEYKPTVRLATRDDVPRAVRTLAAAFADYPATRHTVDPDRHIERVTELQELFLTRVGLDIGKVWVADDGAAVAVWTTPESVEAGAVFAEIGPRMAELSGSRLAAQQQMEGLLAPHRPKEPAWFLATVGVSPDHQGKGLGSAVVLPGVEAAERAGVPAFLETSAPRNLPFYERLGFTVTADVEVPEGPRTWCMTRKPGA

Test system: target antigen-expressing cell line
Assay: Jurkat NFAT-GFP assay, coculture with target cell lines expressing the respective target antigen (summary Table 10A)
Type: cell-based, human
Parameters: key: The signs +/−, +, 2+ etc. after the name of the cell lines indicate the relative degree of positivity on the Jurkat-NFAT-GFP assay as measured by the % GFP positive cells; +: relative degree of positivity on the Jurkat-NFAT-GFP assay as measured by the % GFP positive cells; 2+: relative degree of positivity on the Jurkat-NFAT-GFP assay as measured by the % GFP positive cells
Conditions: relative % GFP positive cells; for NFAT-GFP ASSAY Positive Cell lines: NALM6: SIR-expressing Jurkat-NFAT-GFP cells cocultured with NALM6; for NFAT-GFP ASSAY Positive Cell lines: RAJI: SIR-expressing Jurkat-NFAT-GFP cells cocultured with RAJI
Method in brief: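 Jurkat cells carrying an NFAT-site IL-2 promoter driving GFP were lentivirally transduced with SIRs, puromycin-selected, then cocultured with antigen-expressing target cells at E:T about 1:2 for about 4–18 hours. GFP induction was read by flow cytometry as % GFP-positive cells versus parental Jurkat-NFAT-GFP.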

Molecule	NFAT-GFP ASSAY Positive Cell lines: NALM6	NFAT-GFP ASSAY Positive Cell lines: RAJI
B1	(+/−)	RAJI (+), NALM6
B2		RAJI (+/−)
B3	(+)	
B4		RAJI (2+)
